Measured values taken from the supplement of paper PMC12042874.
± gives the uncertainty stated by the source.

test: amyloid nucleation score (Sup35N fusion, yeast selection) (log enrichment); library NNK2; higher = more nucleation; inactive = no reads after selection
In short: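 Peptides of 20 random codons, each fused to Sup35N, were expressed in psi-negative yeast. Cells were induced with 100 μM copper sulfate for 24 hours and grown 7 days at 30°C on medium lacking adenine and uracil, and plasmid inserts before and after selection were Illumina-sequenced. Nucleation scores are DiMSum log enrichments of output over input reads, centred on the mode score of non-aggregating sequences, and sequences under 100 input reads were excluded.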

Compared with EHSWIKLCIEWMSKPIGARR, EITSKMSSWGSLTASALTIS is lower in amyloid nucleation score: 0.927 ± 0.32 for the first, -0.104 ± 0.48 for the second.

EKVGS and ELDWKASTIGKMNHIRLERR are within error of each other in amyloid nucleation score: -0.097 ± 1.1 for the first, 0.145 ± 0.23 for the second.

ELFYDLSQTCQMCF and ELILFITYTCIFWADCGRLY are within error of each other in amyloid nucleation score: -0.759 ± 0.64 for the first, -2.12 ± 1.1 for the second.

First: ELKFSINWHW
Second: ELLYWCANHDAGIVRVEFWW
The amyloid nucleation score of the first is higher: 4.4 ± 0.083 for the first, 1.48 ± 0.1 for the second.

First: ELQRKNTGLKVDLKAHIHRF
Second: ELVLF
The amyloid nucleation score of the first is higher: 5.37 ± 0.063 for the first, -0.454 ± 0.42 for the second.

EMCCTENCLEGSKVLAQFYC and EMLKHCYTSTQSSYSFIYWR are within error of each other in amyloid nucleation score: -1.02 ± 0.61 for the first, -0.27 ± 0.65 for the second.

Going from EMYVNFMHVDGDGVPQHDAW to EPSCTATKFVSGTMF, the amyloid nucleation score rises from 0.929 ± 0.37 to 2.17 ± 0.11.

Compared with EQMGCTGLVFNVCEGFEDVM, EQRILRLSRSIESFSMNRNQ is lower in amyloid nucleation score: 3.44 ± 0.059 for the first, -0.593 ± 0.64 for the second.

Going from ERGQGKHRNEGVHYNRWCGC to ERGSGASMFVDGGRYRSRPM, the amyloid nucleation score falls from 2.15 ± 0.17 to -0.159 ± 1.

First: ERRRFRVDRKVLAFFYVSGT
Second: ERRTCTRLPNVSRARIR
The amyloid nucleation score of the first is lower: 0.046 ± 0.37 for the first, 1.27 ± 0.21 for the second.

ERTVKETFSTGNSYEGTGRR and ESAAER are within error of each other in amyloid nucleation score: -0.468 ± 0.53 for the first, -0.186 ± 0.76 for the second.

Compared with ESHTGYNIPVIRSHPPYNRS, ESSIRHRGMERRCRLHKRH is higher in amyloid nucleation score: -0.869 ± 0.64 for the first, 0.546 ± 0.39 for the second.

First: ESYRPPVKTFGLGIRMGLFV
Second: ETGSIVVKMLPSRWGSLRLV
The amyloid nucleation score of the first is lower: -0.975 ± 1.1 for the first, 3.19 ± 0.11 for the second.

First: ETKKLYDRAARERRCCRNHY
Second: EVFGGFTRRRCVVLPRHRAW
The amyloid nucleation score of the first is lower: 0.078 ± 0.3 for the first, 1.9 ± 0.27 for the second.

First: EVGKNRTSHIL
Second: EVHASYVRTSWDVCTWVGHV
The amyloid nucleation score of the first is lower: -0.134 ± 0.55 for the first, 2.29 ± 0.26 for the second.

EVRFSILFGSVIKRTV and EVRWASAPRNCCR are within error of each other in amyloid nucleation score: 1.09 ± 0.21 for the first, 0.79 ± 0.26 for the second.

Compared with EWSFLMNFSIMYRHFRVLAL, EWVAVGTDQR is higher in amyloid nucleation score: -1.35 ± 0.78 for the first, 1.25 ± 0.29 for the second.

EWVNVASVYGDSKKRYGWNA and EYAYILELFYQCFVMPYTLV are within error of each other in amyloid nucleation score: -0.239 ± 0.61 for the first, 0.392 ± 0.51 for the second.

First: EYHLDHDFSPMGMAPRH
Second: EYHSSWVISAPVYLQSATAW
The amyloid nucleation score of the first is lower: 0.049 ± 0.63 for the first, 5.23 ± 0.085 for the second.

Compared with EYRVYYSRLRSLSTEEPMAS, EYSFIHLEIKNTVLKRVLTP is higher in amyloid nucleation score: -0.299 ± 0.79 for the first, 1.66 ± 0.32 for the second.

First: EYSLCRMG
Second: FACIPIQCIGISGRGSRDRR
The amyloid nucleation score of the first is lower: -0.155 ± 0.28 for the first, 8.017 ± 0.044 for the second.

First: FAESDGRHHFFSPLVSERIE
Second: FAFMITPCMLTSRMFSYGHA
The amyloid nucleation score of the first is higher: 3.82 ± 0.056 for the first, -0.18 ± 0.36 for the second.

FAFTPIC and FAIMHFY are within error of each other in amyloid nucleation score: -1.59 ± 1 for the first, -0.711 ± 1.1 for the second.

Going from FAYISRFKGG to FAYKNRNM, the amyloid nucleation score falls from 4.22 ± 0.059 to -0.307 ± 0.41.

FCEWGSEYWGNMDCDACDTA and FCIQK are within error of each other in amyloid nucleation score: -1.09 ± 0.76 for the first, -0.114 ± 0.55 for the second.

Compared with FCKDLMFC, FCLDLWCKGFLYYTQCVNGW is higher in amyloid nucleation score: 0.378 ± 0.36 for the first, 4.08 ± 0.063 for the second.

FCMRNGVYLEYFVGLMLFCA and FCNDRTTVGD are within error of each other in amyloid nucleation score: -0.566 ± 0.63 for the first, -0.538 ± 0.39 for the second.

FCRNIKDYLDYCHRGVGPKK and FCSGVLQMLLISLDNLGRVS are within error of each other in amyloid nucleation score: 0.176 ± 0.76 for the first, -0.017 ± 1 for the second.

Going from FCSPCSFLINSY to FCSVTMHKKMN, the amyloid nucleation score falls from 6.514 ± 0.048 to -0.195 ± 0.38.

FCTKSTGNMCFTIMKLRG and FDKCLDKLMDKEKHALTFPQ are within error of each other in amyloid nucleation score: 0.097 ± 0.79 for the first, -0.453 ± 1.1 for the second.

FDLSREV and FDTRLSNFFPF are within error of each other in amyloid nucleation score: -0.544 ± 0.29 for the first, -0.636 ± 0.76 for the second.

Going from FDTVGYSACCCWP to FEEYEGLLDVSFKRPSFYCI, the amyloid nucleation score falls from 4.78 ± 0.11 to 0.456 ± 0.6.

Going from FEGTHCVSSIANVMCVRWCL to FEGVTYSRVV, the amyloid nucleation score falls from 6.43 ± 0.069 to 0.001 ± 0.54.

FEKISSAFFGNYGLFMNWLS and FEMIC are within error of each other in amyloid nucleation score: -0.441 ± 0.78 for the first, 0.783 ± 0.57 for the second.

FEYPLCKTFEIRKPVFRVWV and FFAGKCGIMTSLRDLSVAFG are within error of each other in amyloid nucleation score: -0.089 ± 0.79 for the first, -0.071 ± 0.65 for the second.

FFAKCELVSWDFDKSLGSSM and FFCPRGRAFLSSRM are within error of each other in amyloid nucleation score: -0.437 ± 0.34 for the first, -0.788 ± 0.79 for the second.

Compared with FFCTQRFSVCVLGVHKLESL, FFDGSVNQYESRYHGCD is lower in amyloid nucleation score: 4.26 ± 0.048 for the first, -0.37 ± 0.76 for the second.

First: FFIIMRYRLRDFTFVYSSPV
Second: FFMCMQVWLRVFYVRGM
The amyloid nucleation score of the first is higher: -0.627 ± 0.31 for the first, -1.5 ± 0.36 for the second.

In the case of ELAMNIMMAFYYVCSIISTE, the amyloid nucleation score is reported as “inactive”.
For ELLHFSSISTS, the amyloid nucleation score was “inactive”.
With EPVGYSMLGHVIKTVLVLAR the amyloid nucleation score was “inactive”.
In the case of ESLEADN, the amyloid nucleation score is reported as “inactive”.
With ETEGKGRWKD the amyloid nucleation score was “inactive”.
For FDGTIYCPSWILWETPGVNK, the amyloid nucleation score was “inactive”.
For FFFMSDLYKSLSSAYDLGSI, the amyloid nucleation score was “inactive”.
For FFGGYYYKLSQKLLRIAHYH, the amyloid nucleation score was “inactive”.
With FFHKDPLLQNRIVLHMQVPA the amyloid nucleation score was “inactive”.
